Test results published in PMC12589613.

Key:
Experiment in all cases: single-molecule TIRF
[1] = test system: MDA5 (human); settings: biotin on annealed RNA linkers 1 and 2, smTIRF imaging buffer, salt, pH and temperature not given in the material, proteins 3-100 nM, with or without ATP or ADPCP
[2] = test system: MDA5(Q57E) (human); settings: biotin on annealed RNA linkers 1 and 2; smTIRF imaging buffer, salt, pH and temperature not given in the material; proteins 3-100 nM, with or without ATP or ADPCP
[3] = test system: MDA5ΔN (human); settings: biotin on annealed RNA linkers 1 and 2; smTIRF imaging buffer, salt, pH and temperature not given in the material; proteins 3-100 nM, with or without ATP or ADPCP

11.6-kb dsRNA gave a binding signal (frequency of static binding) ([1]; ADPCP, translocation 0) of 0.337, a binding signal (frequency of static binding) [1] of 0.022 and a binding signal (frequency of translocation) [1] of 0.114. It also gave a binding signal (frequency of static binding) ([1]; no ATP, translocation 0) of 0.136, a binding signal (frequency of static binding) [2] of 0.086 and a binding signal (frequency of translocation) [2] of 0.527. It also gave a binding signal (frequency of static binding) [3] of 0.105 and a binding signal (frequency of translocation) [3] of 1.42.
